The supplement of paper PMC9170038

Tested on: MS2 coat protein
Assay: apparent KD of MS2 coat protein; designed switch direction (-1 OFF switch, 1 ON switch): -1; higher = weaker reporter binding
In short: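 An oligonucleotide input, 200 uM small-molecule ligand, or no input was present during titration of SNAP-549-labelled MS2 coat protein, which was doubled from 0.7 or 1.5 nM to 3 µM. Designed RNA switches had been transcribed on Illumina chips by stalled E. coli RNA polymerase. Apparent KD per design is the median over clusters of curves fitted to normalised cluster fluorescence.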

[1] = input ligand: microRNA oligo, concentration not stated
[2] = Eterna round: R95, input ligand: microRNA oligo, concentration not stated
[3] = Eterna round: R95, input ligand: FMN 200 uM
[4] = Eterna round: R95, input ligand: none

| Sequence | apparent KD of MS2 coat protein (input ligand: FMN 200 uM) | apparent KD of MS2 coat protein (input ligand: none) | apparent KD of MS2 coat protein [2] | further results |
| --- | --- | --- | --- | --- |
| GGAGGAGAGGUUAGGAUAUCCUCCUCGAAAGAGGAGGAGAAGGAACAUGAGGAUCACCCAUGUAAGGAAGGAGG [AK-MS2ROC-r4-Bmoexclusion4-10] (Eterna round: R97, puzzle: Brourd's mod of Exclusion 4) | 27.1 nM | 37 nM |  |  |
| GGAUAAAAGGCAGGAUAUACGUAUCACUAACGAGUAGAAGGGCCACAUGAGGAUCACCCAUGUGAGUUCUCAAUAAGAAACACG [Prohibition 63 - Jieux - Exclusion NG 1] (Eterna round: R96, puzzle: Exclusion NG 1) | 15.3 nM | 14.2 nM |  | apparent KD of MS2 coat protein [1]: 10.7 nM |
| GGAUAGUGAGGAUAUCGAUGUUAGGAGGAUGAGGUAGGAUGCGAGAAGGCACAUGAGGAUCACCCAUGUAUGGU [JR_Exclu4_Sub070] (puzzle: Exclusion 4) |  |  | 38.4 nM |  |
| GGAUAUAAGUCAGGAUAUGAGCGCAACUGACGAUCAGAAGGGACACAUGAGGAUCACCCAUGUGAUCUAUCAAUAUUAUACAUG [Prohibition 93 - Jieux - Exclusion NG 1] (Eterna round: R96, puzzle: Exclusion NG 1) | 29.1 nM | 22.4 nM |  | apparent KD of MS2 coat protein [1]: 19 nM |
| GGAUCGAGAGUGAGGAUAUGCUGGUCCUUGGAUCAGCAGAAGGCACAUGAGGAUCACCCAUGUGAUUCCGAUCC [Mat - Exclusion 4 - Eli Mod - D39] (Eterna round: R97, puzzle: Brourd's mod of Exclusion 4) | 399 nM | 40.6 nM |  |  |
| GGAUCGAGUGUGAGGAUAUGCAGGUCCUUGGAUCUGCAGAAGGCACAUGAGGAUCACCCAUGUGGAGACGGUCC [Mat - Exclusion 4 - JL Mod - D75] (puzzle: Brourd's mod of Exclusion 4) |  |  | 64.2 nM | apparent KD of MS2 coat protein [3]: 406 nM; apparent KD of MS2 coat protein [4]: 110 nM |
| GGAUCGAGUGUGAGGAUAUGCUGGUCCUUGGAUCAGCAGAAGGCACAUGAGGAUCACCCAUGUGAAAACGGUCC [Mat - Exclusion 4 - JL Mod - D70] (puzzle: Brourd's mod of Exclusion 4) |  |  | 22.7 nM |  |
| GGAUCGAUAGUGAGGAUAUACCACUGGAUACAGUGGUAGAAGGCACAUGAGGAUCACCCAUGUCCUAACGAUCC [Fiskers BMX 4 - 49] (puzzle: Brourd's mod of Exclusion 4) |  |  | 17.6 nM |  |
| GGCACACAUGAGGAUCACCCAUGUGAGGAUAUGCUGCGAUCGUCGUAAGACGAUAGCAGUAGAAGGCACAUGCC [Mat - Exclusion 1 - Eli Mod - D8] (Eterna round: R97, puzzle: Exclusion 1) | 22.9 nM | 20.5 nM |  |  |
| GGCACACAUGAGGAUCACCCAUGUGAGGAUAUGGUGCGAUCGUCGAUAGACGAUAGCACCAGAAGGCACAUGCC [Mat - Exclusion 1 - Eli Mod - D5] (Eterna round: R97, puzzle: Exclusion 1) | 33.6 nM | 15.4 nM |  |  |
| GGCAUGCAAGGAUAUACUUACGGUGGUGUUCGAAGCUUUCUACUUGAGGAUCACCCAAGUAGAAGGUGCAUGCC [jl-ex2.4.74 ViennaUCT mod] (Eterna round: R97, puzzle: Exclusion 2) | 18.7 nM | 23.7 nM |  |  |
| GGCAUGUGAGGAUAUGUACCUGAGUGCUUUGCGCUCAGGAAACAGAAGGCACAUGAGGAUCACCCAUGUGAAAU [jl-ex4-4.48 ViennaUCT mod] (Eterna round: R97, puzzle: Exclusion 4) | 96.8 nM | 251 nM |  |  |
| GGCCUACGAGGAUAUCGCUAGCGGGACAUGAGGAUCACCCAUGUGUCGGACCGCGUCAUGCGAGAAGGUGUAAUGA [Ribeceve] (puzzle: Exclusion 5) |  |  | 14.9 nM |  |
| GGCGAAGUAGGAUAUACAUGAGGAUCACCCAUGUUACCUGAUGGCGUAGGUCUUCUAUGUAGAAGGGCUACGCC [jl-ex3-4.36 ViennaUCT mod] (Eterna round: R97, puzzle: Exclusion 3) | 16.9 nM | 16.9 nM |  |  |
| GGCUAGUCAGGAUAUACGAACAUGUCAAAAGACGUGAAGGGACAUGAGGAUCACCCAUGUAGAAGGGACUAGCC [salish99_ex2_r3_004] (Eterna round: R96, puzzle: Exclusion 2) | 181 nM | 27.5 nM |  | apparent KD of MS2 coat protein [1]: 21.9 nM |
| GGCUAGUCAGGAUAUACGAACAUGUCAAAAGACGUGAAGGGACAUGAGGAUCACCCAUGUAGAAGGGACUAGCC [salish99_ex2_r3_004] (puzzle: Exclusion 2) |  |  | 21.8 nM |  |
| GGCUAGUCAGGAUAUACGAACAUGUCAAAAGACGUGAAGGGACAUGAGGAUCACCCAUGUAGAAGGGACUAGCU [salish99_ex2_r3_003] (puzzle: Exclusion 2) |  |  | 27.9 nM |  |

| Sequence | apparent KD of MS2 coat protein (input ligand: FMN 200 uM) | apparent KD of MS2 coat protein (input ligand: none) | apparent KD of MS2 coat protein [2] | further results |
| --- | --- | --- | --- | --- |
| GGCUGCAAUGUAGGAUAUCUGCACGAUUAGUGCAGAGAAGGACAUGAGGAUCACCCAUGUAUAGUAGCUUCGGCUACAGCAGCC [ENG1-D1] (Eterna round: R96, puzzle: Exclusion NG 1) | 17.1 nM | 15.6 nM |  | apparent KD of MS2 coat protein [1]: 14.2 nM |
| GGCUUACAUGAGGAUCACCCAUGUCAGGAUAUAGAACGAUGGCGGAACGCCAUCGCCGCUAGAAGGGACCGGUG [Eternabot (Original) Solution 25] (Eterna round: R97, puzzle: Exclusion 1) | 142 nM | 78 nM |  |  |
| GGCUUGUAAGGAUAUGCGAAGGGAAGGAGAGGGACAGAGAAGCAGAAGGUACAUGAGGAUCACCCAUGUAAGGG [AK-MS2ROC-r4-exclusion4-7] (Eterna round: R97, puzzle: Exclusion 4) | 247 nM | 94.9 nM |  |  |
| GGGAUGUCAGGAUAUGAUUAGCACGGCGGUAGCCGCGUUACUUAGAAGGGACAUGAGGAUCACCCAUGUACCGA [EX4 B.6] (Eterna round: R97, puzzle: Exclusion 4) | 18.6 nM | 16.9 nM |  |  |
| GGGCCCGGAGGAUAUACAUGAGGAUCACCCAUGUAGGGCCCGGGUAUUCCCGGGCCCUGUAGAAGGUUGGGCCC [-44, -41.2 kcal, A 19%, 0,5c] (Eterna round: R97, puzzle: Exclusion 3) | 17.8 nM | 15.8 nM |  |  |
| GGGCCGGCCGGAGGAUAUGCGGCCCGGCCGGCCGGUGGGCCGGCCGGGACAUGAGGAUCACCCAUGUAGAAGGCCGGCCGGCCC [low energy, MS2 in another position, A 14%] (Eterna round: R96, puzzle: Exclusion NG 2) | 18.8 nM | 15.9 nM |  | apparent KD of MS2 coat protein [1]: 13.7 nM |
| GGGCGUGAAGGAUAUACAUGAGGAUCACCCAUGUGGGAGGAGAGUGGUGAGGAGGCUGGUAGAAGGUCAGGAUG [JR_Exclusion3_Sub007] (puzzle: Exclusion 3) |  |  | 42.6 nM |  |
| GGGUAACAUGAGGAUCACCCAUGUGAGGAUAUUCUAGGGAUGGAAGCUCGGCCGGCCAGGAGAAGGUACUAAAG [Janelle Amethyst 18 Mod 20 - Jieux - Exclusion 1] (Eterna round: R96, puzzle: Exclusion 1) | 62 nM | 48.2 nM |  | apparent KD of MS2 coat protein [1]: 29.6 nM |
| GGGUAAUUCGUGAGGAUAUCGCUAAGCACUUUGGCCGAGAAGGCACAUGAGGAUCACCCAUGUAAUACGGCACG [Eternabot (L1) Solution 92] (Eterna round: R97, puzzle: Brourd's mod of Exclusion 4) | 70.9 nM | 19.1 nM |  |  |
| GGGUAGUGAGGAUAUCGUUGUUAGGAGGAGUAGGUAGGAGGCGAGAAGGCACAUGAGGAUCACCCAUGUAUGAA [JR_Exclu4_Sub066] (Eterna round: R96, puzzle: Exclusion 4) | 34.9 nM | 32 nM |  | apparent KD of MS2 coat protein [1]: 26.2 nM |
| GGGUAGUGAGGAUAUCGUUGUUAGGAGGAGUAGGUAGGAGGCGAGAAGGCACAUGAGGAUCACCCAUGUAUGAA [JR_Exclu4_Sub066] (puzzle: Exclusion 4) |  |  | 23.5 nM |  |
| GGGUGCAGGCUGAGGUCCUACAUGAGGAUCACCCAUGUGGUCCGGUGGCGUGGGUCGCCGGACUUGGCUCGUCUUGU [salish99_S_TOV1_R5_013] (Eterna round: R97, puzzle: Sensor, turn-off variant 1) | 39.2 nM | 45.8 nM |  |  |
| GGUACUAACACGAAAGUGUUAGUACAAUAAGCUUGUGAAACAUGAGGAUCACCCAUGUCCUCAUAAGCUCGUCUUAG [salish99_TOv2_r3_005] (puzzle: Sensor v3, turn-off variant 2) |  |  | 392 nM | apparent KD of MS2 coat protein [3]: 13.4 nM; apparent KD of MS2 coat protein [4]: 12.3 nM |
| GGUACUCAAAGAGUACCAAUACGAACAUGAGGAUCACCCAUGUAGGAUAUGCUACUCAAAGAGUAGCAGAAGGAUAUGAUCCCU [Far Half Aptamer v12] (Eterna round: R96, puzzle: Exclusion NG 3) | 211 nM | 126 nM |  | apparent KD of MS2 coat protein [1]: 99.6 nM |
| GGUAGAGAGCAGGAUAUCUUGGGUAAGUAUCGUAGAGAAGGGCUCACAUGAGGAUCACCCAUGUGGUCCUAGAU [JL Dibiri mod 04] (puzzle: Exclusion 6) |  |  | 11.8 nM |  |
| GGUAUACAUGAGGAUCACCCAUGUCAGGAUAUGUAUGCAUAUGCCGAAAGGCAUAUGCUCAGAAGGGACUAUAU [AK-MS2ROC-r4-exclusion1-4.0] (Eterna round: R97, puzzle: Exclusion 1) | 42.4 nM | 32 nM |  |  |
| GGUCAGAUGGUAGGAUAUCCAUAUCGAGUGACUCUUUCAUAACAUGAGGAUCACCCAUGUCGGUGGGAGAAGGGCCGUACGGCG [salish99_ExNG02_R04_016] (Eterna round: R96, puzzle: Exclusion NG 2) | 38.9 nM | 36.6 nM |  | apparent KD of MS2 coat protein [1]: 23.3 nM |
